{"source": "patent US20240376455", "assay_in_all_cases": "cleavage_in_vitro", "key": {"[1]": {"test_system": "T1, LPG10139 (Bacillus megaterium)", "T1 sequence": "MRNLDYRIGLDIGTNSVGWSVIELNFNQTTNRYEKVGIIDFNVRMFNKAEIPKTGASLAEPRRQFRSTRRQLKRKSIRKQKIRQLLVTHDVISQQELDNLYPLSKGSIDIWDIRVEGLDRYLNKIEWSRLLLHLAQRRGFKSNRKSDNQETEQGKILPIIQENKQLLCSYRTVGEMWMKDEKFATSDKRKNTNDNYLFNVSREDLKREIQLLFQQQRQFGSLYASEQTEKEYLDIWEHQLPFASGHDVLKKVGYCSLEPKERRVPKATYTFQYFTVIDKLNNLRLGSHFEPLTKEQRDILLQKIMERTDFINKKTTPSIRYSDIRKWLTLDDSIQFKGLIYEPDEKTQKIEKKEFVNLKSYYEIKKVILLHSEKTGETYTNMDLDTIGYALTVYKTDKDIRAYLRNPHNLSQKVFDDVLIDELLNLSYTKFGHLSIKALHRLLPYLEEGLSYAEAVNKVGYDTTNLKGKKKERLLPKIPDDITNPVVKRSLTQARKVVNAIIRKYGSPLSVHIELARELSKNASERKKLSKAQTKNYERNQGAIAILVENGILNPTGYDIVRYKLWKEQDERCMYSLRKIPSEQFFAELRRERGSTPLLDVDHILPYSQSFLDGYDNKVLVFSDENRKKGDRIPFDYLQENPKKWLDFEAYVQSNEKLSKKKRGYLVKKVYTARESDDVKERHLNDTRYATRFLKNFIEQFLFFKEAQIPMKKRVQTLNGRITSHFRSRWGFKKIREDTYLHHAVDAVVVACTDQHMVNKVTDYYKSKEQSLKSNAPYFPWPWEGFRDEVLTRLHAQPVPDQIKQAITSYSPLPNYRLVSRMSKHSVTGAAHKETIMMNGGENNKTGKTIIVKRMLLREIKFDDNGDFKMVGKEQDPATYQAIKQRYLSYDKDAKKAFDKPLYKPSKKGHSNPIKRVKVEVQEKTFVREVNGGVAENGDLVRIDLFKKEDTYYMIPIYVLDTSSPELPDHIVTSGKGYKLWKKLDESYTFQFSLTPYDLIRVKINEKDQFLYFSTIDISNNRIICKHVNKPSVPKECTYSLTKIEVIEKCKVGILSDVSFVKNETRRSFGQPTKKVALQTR", "settings": "PAM NNNNC"}, "LPG10145 (undetermined)": {"test_system": "T2, LPG10145 (undetermined)", "T2 sequence": "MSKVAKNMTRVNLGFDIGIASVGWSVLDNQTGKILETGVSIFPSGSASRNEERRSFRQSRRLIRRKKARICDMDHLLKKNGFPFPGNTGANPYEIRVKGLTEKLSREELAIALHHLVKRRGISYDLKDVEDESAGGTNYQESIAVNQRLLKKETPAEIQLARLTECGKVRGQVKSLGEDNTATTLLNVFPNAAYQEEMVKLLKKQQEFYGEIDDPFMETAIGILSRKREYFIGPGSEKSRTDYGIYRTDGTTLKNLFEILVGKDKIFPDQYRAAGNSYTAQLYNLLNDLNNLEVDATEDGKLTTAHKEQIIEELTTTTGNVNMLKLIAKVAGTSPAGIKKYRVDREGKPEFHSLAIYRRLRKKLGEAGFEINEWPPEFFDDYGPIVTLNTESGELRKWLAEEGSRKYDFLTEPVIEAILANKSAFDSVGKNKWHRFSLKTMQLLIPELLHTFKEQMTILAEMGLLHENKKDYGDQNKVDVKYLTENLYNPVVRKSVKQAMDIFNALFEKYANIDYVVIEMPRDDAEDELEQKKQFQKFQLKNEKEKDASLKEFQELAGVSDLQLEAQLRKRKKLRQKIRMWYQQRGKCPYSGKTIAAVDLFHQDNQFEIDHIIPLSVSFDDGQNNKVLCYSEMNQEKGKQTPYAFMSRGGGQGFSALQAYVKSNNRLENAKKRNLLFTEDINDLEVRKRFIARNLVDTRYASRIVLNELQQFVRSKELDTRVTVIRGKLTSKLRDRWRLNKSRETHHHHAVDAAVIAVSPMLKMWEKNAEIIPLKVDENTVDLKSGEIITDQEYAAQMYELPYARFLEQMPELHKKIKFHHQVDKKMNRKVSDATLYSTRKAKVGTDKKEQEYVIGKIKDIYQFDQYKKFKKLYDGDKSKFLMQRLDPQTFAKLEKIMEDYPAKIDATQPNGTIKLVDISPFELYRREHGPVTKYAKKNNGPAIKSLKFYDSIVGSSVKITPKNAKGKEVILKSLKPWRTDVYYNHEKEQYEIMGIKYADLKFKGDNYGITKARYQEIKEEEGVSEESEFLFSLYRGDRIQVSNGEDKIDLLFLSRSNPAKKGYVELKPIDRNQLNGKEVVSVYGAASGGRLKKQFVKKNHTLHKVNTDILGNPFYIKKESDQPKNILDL", "settings": "PAM NNGG; 37C 120 min"}, "LPG10150 (undetermined)": {"test_system": "T3, LPG10150 (undetermined)", "T3 sequence": "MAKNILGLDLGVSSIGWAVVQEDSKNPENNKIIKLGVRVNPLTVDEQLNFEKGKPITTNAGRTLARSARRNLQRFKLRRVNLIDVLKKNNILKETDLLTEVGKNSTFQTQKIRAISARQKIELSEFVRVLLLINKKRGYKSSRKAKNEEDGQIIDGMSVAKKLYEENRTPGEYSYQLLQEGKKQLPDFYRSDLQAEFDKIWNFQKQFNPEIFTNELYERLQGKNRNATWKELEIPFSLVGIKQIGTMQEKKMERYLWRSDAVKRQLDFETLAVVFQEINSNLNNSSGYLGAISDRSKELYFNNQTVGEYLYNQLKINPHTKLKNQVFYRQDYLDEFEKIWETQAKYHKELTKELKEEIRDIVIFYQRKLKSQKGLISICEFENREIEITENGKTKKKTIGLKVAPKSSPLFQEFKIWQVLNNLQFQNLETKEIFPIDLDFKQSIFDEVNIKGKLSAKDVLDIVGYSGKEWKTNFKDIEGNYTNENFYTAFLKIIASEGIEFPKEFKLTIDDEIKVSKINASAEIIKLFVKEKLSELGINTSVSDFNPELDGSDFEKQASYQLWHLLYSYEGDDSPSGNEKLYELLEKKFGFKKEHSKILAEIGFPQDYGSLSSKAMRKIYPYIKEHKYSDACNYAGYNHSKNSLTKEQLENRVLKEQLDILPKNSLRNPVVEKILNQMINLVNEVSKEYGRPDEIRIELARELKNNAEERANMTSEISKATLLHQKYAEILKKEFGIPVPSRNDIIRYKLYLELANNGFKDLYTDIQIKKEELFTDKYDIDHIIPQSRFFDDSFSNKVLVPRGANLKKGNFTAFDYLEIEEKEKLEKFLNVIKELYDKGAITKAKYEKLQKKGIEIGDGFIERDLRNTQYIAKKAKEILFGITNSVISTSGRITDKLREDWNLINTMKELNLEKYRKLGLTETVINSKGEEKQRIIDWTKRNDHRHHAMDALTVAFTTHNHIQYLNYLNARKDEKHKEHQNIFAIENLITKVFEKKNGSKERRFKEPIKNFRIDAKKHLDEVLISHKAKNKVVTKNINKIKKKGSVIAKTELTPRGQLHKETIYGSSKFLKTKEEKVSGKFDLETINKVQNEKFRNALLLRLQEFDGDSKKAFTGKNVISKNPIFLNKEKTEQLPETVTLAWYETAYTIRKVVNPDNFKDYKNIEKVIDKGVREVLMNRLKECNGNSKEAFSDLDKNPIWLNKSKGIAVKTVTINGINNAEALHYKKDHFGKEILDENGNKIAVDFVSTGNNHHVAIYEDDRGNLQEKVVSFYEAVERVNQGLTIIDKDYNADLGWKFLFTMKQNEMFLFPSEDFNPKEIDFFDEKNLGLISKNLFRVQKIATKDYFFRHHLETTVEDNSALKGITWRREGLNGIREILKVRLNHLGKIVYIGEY", "settings": "PAM SEQ ID 81"}}, "data": [{"sequence": "GUCAUAGUCCCAUCAUAUCCAUUGAAAGCAAUGGAUAUGAUGUUUCUAUGAUAAGGGCUCUCUAAGAGAGACCUGUGGCGUUGGGGAUCGCCUGCCCGUUUCGACGGGUGUCUCCCCAUUU / GATATAGACGTTGTGGCTGTTGTAGTAGGACCTC / GAGGTCCTACTACAACAGCCACAACGTCTATATC [LPG10139 sgRNA L2 ; Library 2 target AGGACCTC]", "values": [{"measurement": "activity (% target strand cleaved)", "setting": "[1]", "value": 7.3}]}, {"sequence": "GUCAUAGUCCCAUCAUAUCCAUUGAAAGCAAUGGAUAUGAUGUUUCUAUGAUAAGGGCUCUCUAAGAGAGACCUGUGGCGUUGGGGAUCGCCUGCCCGUUUCGACGGGUGUCUCCCCAUUU / GGACAGCAGCTTCCTATATCTCGTACAGGACCTC / GAGGTCCTGTACGAGATATAGGAAGCTGCTGTCC [LPG10139 sgRNA L1 ; Library 1 target AGGACCTC]", "values": [{"measurement": "activity (% target strand cleaved)", "setting": "[1]", "value": 4.4}]}, {"sequence": "GUUAUUGUACUCUCAAGGAAUCAGAAAGACUGAUUCCUUGAGAAUCUACAAUAAUAAGGCUUUAUGCCGAAAUUCCCACUCUUAACGGAGUGGGUUUU / GATATAGACGTTGTGGCTGTTGTAGTACGGATTC / GAATCCGTACTACAACAGCCACAACGTCTATATC [LPG10145 sgRNA L2 ; Library 2 target ACGGATTC]", "values": [{"measurement": "activity (% target strand cleaved)", "setting": "LPG10145 (undetermined)", "value": 100}]}, {"sequence": "GUUAUUGUACUCUCAAGGAAUCAGAAAGACUGAUUCCUUGAGAAUCUACAAUAAUAAGGCUUUAUGCCGAAAUUCCCACUCUUAACGGAGUGGGUUUU / GGACAGCAGCTTCCTATATCTCGTACACGGATTC / GAATCCGTGTACGAGATATAGGAAGCTGCTGTCC [LPG10145 sgRNA L1 ; Library 1 target ACGGATTC]", "values": [{"measurement": "activity (% target strand cleaved)", "setting": "LPG10145 (undetermined)", "value": 92.9}]}, {"sequence": "GUUGUGAAUUGCUUUAAAGAAAGCAAUUCACAAUAAGGAUUAUUCCGUUGUGAAAACAUCUAGCGCCUCGUCUAUCUACGGGGCAUUUU / GATATAGACGTTGTGGCTGTTGTAGTAGGACTTC / GAAGTCCTACTACAACAGCCACAACGTCTATATC [LPG10150 sgRNA L2 ; Library 2 target AGGACTTC]", "values": [{"measurement": "activity (% target strand cleaved)", "setting": "LPG10150 (undetermined)", "value": 31.8}]}, {"sequence": "GUUGUGAAUUGCUUUAAAGAAAGCAAUUCACAAUAAGGAUUAUUCCGUUGUGAAAACAUCUAGCGCCUCGUCUAUCUACGGGGCAUUUU / GGACAGCAGCTTCCTATATCTCGTACAGGACCTC / GAGGTCCTGTACGAGATATAGGAAGCTGCTGTCC [LPG10150 sgRNA L1 ; Library 1 target AGGACCTC]", "values": [{"measurement": "activity (% target strand cleaved)", "setting": "LPG10150 (undetermined)", "value": 1.4}]}]}
